The test deals with Mouse IL-11 receptor alpha (Cat. No. MBS553276, MyBioSource, Inc.) (mouse) (UniProt Q64385). Kind of test: cell-based or functional assay.
Chain of UniProt Q64385 (Q64385 24-372): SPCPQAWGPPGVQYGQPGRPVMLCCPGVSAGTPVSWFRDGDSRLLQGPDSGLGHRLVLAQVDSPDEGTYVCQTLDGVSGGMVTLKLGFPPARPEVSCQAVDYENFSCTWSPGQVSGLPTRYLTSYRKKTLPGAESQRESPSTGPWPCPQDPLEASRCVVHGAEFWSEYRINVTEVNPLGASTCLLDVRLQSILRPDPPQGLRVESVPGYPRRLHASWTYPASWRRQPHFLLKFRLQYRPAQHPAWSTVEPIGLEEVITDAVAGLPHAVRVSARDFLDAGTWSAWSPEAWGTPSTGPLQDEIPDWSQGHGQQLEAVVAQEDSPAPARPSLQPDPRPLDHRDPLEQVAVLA

“recombinant human IL-11 (rhIL-11) expressed in Pichia pastoris and purified by the described method (from UniProt P20809 22-199) (ligand)” came in with an EC50, 7TD1 cell proliferation assay (MTS, absorbance at 490 nM) of 2.2 ng/mL.
Consider “Reference standard of rhIL-11, derived from yeast (Hangzhou Jiuyuan Gene Engineering Company) (from UniProt P20809 23-199) (ligand)”, for which the EC50, 7TD1 cell proliferation assay (MTS, absorbance at 490 nM) was determined as 1.1 ng/mL.

Values taken from patent US11629367.
